{
  "source": "patent US7387779B2",
  "about": "“Anti-angiogenic proteins and fragments and methods of use thereof” (Beth Israel Deaconess Medical Center, priority 1998, dated 2008)",
  "molecules": {"B1": {"name": "Tumstatin: NC1 domain of the α3 chain of type IV collagen, residues 1-244 (SEQ ID NO:10) (protein, listed as Homo sapiens)", "chain": "GLKGKRGDSGSPATWTTRGFVFTRHSQTTAIPSCPEGTVPLYSGFSFLFVQGNQRAHGQDLGTLGSCLQRFTTMPFLFCNVNDVCNFASRNDYSYWLSTPALMPMNMAPITGRALEPYISRCTVCEGPAIAIAVHSQTTDIPPCPHGWISLWKGFSFIMFTSAGSEGTGQALASPGSCLEEFRASPFLECHGRGTCNYYSNSYSFWLASLNPERMFRKPIPSTVKAGELEKIISRCQVCMKKRH"}, "B2": {"name": "Tum-1: residues 54 to 244 of Tumstatin, lacking the N-terminal 53 amino acids (SEQ ID NO:22) (protein)", "chain": "QRAHGQDLGTLGSCLQRFTTMPFLFCNVNDVCNFASRNDYSYWLSTPALMPMNMAPITGRALEPYISRCTVCEGPAIAIAVHSQTTDIPPCPHGWISLWKGFSFIMFTSAGSEGTGQALASPGSCLEEFRASPFLECHGRGTCNYYSNSYSFWLASLNPERMFRKPIPSTVKAGELEKIISRCQVCMKKRH", "modifications": "Tum-1 (Tumstatin N-53) (amino acids 54-244 of SEQ ID NO10)"}, "B3": {"name": "Tumstatin-44-131: residues 44 to 131 of full-length Tumstatin (SEQ ID NO:33) (protein)", "chain": "FSFLFVQGNQRAHGQDLGTLGSCLQRFTTMPFLFCNVNDVCNFASRNDYSYWLSTPALMPMNMAPITGRALEPYISRCTVCEGPAIAI", "modifications": "Tumstatin-45-132 (amino acids 45-132 of SEQ ID NO10)"}, "B4": {"name": "Tum-2: residues 1 to 132 of Tumstatin (SEQ ID NO:23) (protein)", "chain": "GLKGKRGDSGSPATWTTRGFVFTRHSQTTAIPSCPEGTVPLYSGFSFLFVQGNQRAHGQDLGTLGSCLQRFTTMPFLFCNVNDVCNFASRNDYSYWLSTPALMPMNMAPITGRALEPYISRCTVCEGPAIAI", "modifications": "Tum-2 (amino acids 1-132 of SEQ ID NO10)"}, "B5": {"name": "Tum-4: residues 181 to 244 of Tumstatin (SEQ ID NO:25) (protein)", "chain": "EFRASPFLECHGRGTCNYYSNSYSFWLASLNPERMFRKPIPSTVKAGELEKIISRCQVCMKKRH", "modifications": "Tum-4 (amino acids 181-244 of SEQ ID NO10)"}},
  "key": {"C-PAE cells [1]": {"tested_on": "C-PAE cells", "assay": "Cell cycle analysis (propidium iodide, flow cytometry)", "assay_type": "cell-based, bovine", "conditions": "for percentage of cells in G0/G1 phase: bFGF control 53.4%; for G1 (cell cycle arrest assay): Table 4", "method": "(§1) To further evaluate the mechanism of T3 peptide on endothelial cell proliferation, the effect of T3 peptide on cell cycle progression was analyzed. In the growth arrested and contact inhibited cells (0 hour), 4.1% of cells were in S phase. […] This was true even at a maximal dosage of 100 μg/ml. The effect of the T3 peptide was dose-dependent, however, with the percentage of cells in S phase at 21.4% at 10 μg/ml, and 20.5% at 25 μg/ml. The percentage of cells in G0/G1 phase was 88.3% at 0 hour, 53.4% for the bFGF control, and 57.6%, 57.6% and 71.0% for treatments with T1, T6 and T3 peptide, respectively. […] Apoptotic Activity: Peptides T2, T3, T4, T5 and T6 (10 μg/ml concentration) were tested for their effect of viability of C-PAE cells using the MTT assay, as described in Examples 32 and 36 above. The results are shown in FIG. 43D, which is a histogram showing cell viability as measured at OD595 (y-axis), and treatments with the synthetic peptides (x-axis). […] TNF-α (100 ng/ml) was used to serve as a positive control in inducing endothelial cell apoptosis.\nThe effect of Tumstatin-44-131 and Tum-5-125-C-A on the cell cycle were assayed similarly to Example 4 above. Briefly, C-PAE cells were growth arrested by contact inhibition for 48 hours. The cells, at 10^5 cells per well, were then harvested and plated into a 12-well plate coated with fibronectin in 5% FCS and either recombinant Tumstatin-44-131 or Tum-5-125-C-A. After 21 hours, the cells were harvested and fixed in 70% ice-cold ethanol. The fixed cells were rehydrated a room temperature for 30 minutes in PBS containing 2% FCS and 0.1% Tween-20, centrifuged and resuspended in 0.5 ml of the same buffer. RNase (5 μg/ml) digestion was done at 37° C. for one hour, followed by staining with propidium iodide (5 μg/ml). The cells were then counted using an EPICS XL-MCL flow cytometer (Beckman-Coulter Instruments, Fullerton, Calif., USA)."}, "C-PAE cells [2]": {"tested_on": "C-PAE cells", "assay": "MTT cell viability assay", "assay_type": "cell-based, bovine", "method": "The pro-apoptotic activity of Tumstatin N-53 was examined in C-PAE cells. Cell viability was assessed by MTT (3-(4,5-dimethylthiazol-2-yl)-2-,5-diphenyl tetrasolium bromide) assay (Sugiyama, H. et al., 1998, Kidney Int. 54:1188-96). This assay is a quantitative calorimetric analysis for cell survival based on the ability of living cells to cleave the tetrasolium ring in active mitochondria. C-PAE cells (7,000 cells perwell) were plated to a 96-well plate in 10% FCS containing DMEM. The next day, either TNF-α (positive control, 80 ng/ml), or varying concentrations of Tumstatin or Tumstatin N-53 was added to the wells and incubated for 24 hours. MTT solution (5 mg/ml; CHEMICON International, Temecula, Calif., USA) was then added to the wells at a rate of 10 μl/well and incubated at 37° C. for 4 hours. Acid-isopropanol was added and mixed thoroughly. The absorbance was measured in a microplate reader (Bio-Rad, Hercules, Calif., USA) at 590 nm.\nThe MTT assay was used to evaluate cell viability in C-PAE endothelial cells and WM-164 melanoma cells after treatment with Tumstatin, Tum-1, Tum-2, Tum-3 and Tum-4. The results are shown in FIGS. 34A and 34B, which are a pair of graphs showing the effect of increasing concentration (x-axis) of Tumstatin, Tum-1, Tum-2, Tum-3 and Tum-4 on the cell viability (y-axis) of C-PAE cells (FIG. 34A) and WM-164 cells (FIG. 34B). Each point represents the mean ±the standard error of the mean for triplicate wells.\nas §1\nCell viability was measured by MTT assay, as described above."}, "WM-164 cells": {"tested_on": "WM-164 cells", "assay": "Melanoma cell proliferation, methylene blue staining", "assay_type": "cell-based, human", "conditions": "for Relative Cell No. (%) WM-164: 3% FCS, 50 μg/ml recombinant protein", "method": "In the methylene-blue staining method, 7000 cells were plated into each well of a 96-well plate, and treated as described above. Cells were then counted using the method of Oliver et al. (1989, J. Cell. Sci. 92:513-8). After 48 hours of treatment, all wells were washed with 100 μl of PBS, and the cells fixed with 10% formalin in neutral-buffered saline (Sigma Chemical Co., St. Louis, Mo., USA). The cells were then stained with 1% methylene blue (Sigma) in 0.01M borate buffer, pH 8.5. Wells were washed with 0.01M borate buffer, and the methylene blue extracted from the cells with 0.1N HCl/ethanol, and the absorbance measured in a microplate reader (Bio-Rad, Hercules, Calif., USA) at 655 nm. Polymyxin B (Sigma) at a final concentration of 5 μg/ml was used to inactivate endotoxin (Liu, S. et al., 1997, Clin. Biochem. 30:455-63).\nEndothelial cell proliferation was performed by ^3H-thymidine incorporation or methylene blue staining as described above in Example 25. C-PAE cells (passages 2-4) were grown to confluence and kept contact inhibited for 48 hours. 786-O, PC-3 and WM-164 cells were used as non-endothelial controls, and were cultured as described in Example 25, above. HPE (human primary prostate epithelial cells) were cultured in keratinocyte-SFM supplemented with bovine pituitary and recombinant human EGF (Life Technologies/Gibco BRL, Gaithersburg, Md., USA). The melanoma cell line WM-164 was obtained from Dr. Meenhard Herlyn at the Wistar Institute (Philadelphia, Pa., USA), and was cultivated in 78% MCDB-153 medium, 10% L-15 medium, 10% tryptose phosphate broth, 2% FBS, and 50 units/ml insulin, as described by Herlyn et al. (1990, Adv. Cancer Res. 54:213-34).\nProliferation of endothelial cells (C-PAE cells) and WM-164 melanoma cells was assayed by methylene blue staining, as described above in Examples 25 and 34. The results are shown in FIGS. 33A and 33B, which are a pair of graphs showing the effect of increasing concentration (x-axis) of Tumstatin, Tum-1, Tum-2, Tum-3 and Tum-4 on the relative number (y-axis) of C-PAE cells (FIG. 33A) and WM-164 cells (FIG. 33B). […] Tum-4, however, did have anti-proliferative activity in this cell line. […] Only Tum-4 inhibited WM-164 melanoma cells."}},
  "data": [
    {"molecule": "GLKGKRGDSGSPATWTTRGF [T1]", "values": [
      {"measurement": "percentage of cells in S phase", "setting": "C-PAE cells [1]; bFGF 24 hours (control 22.1%), T1 or T6, maximal dosage of 100 μg/ml", "value": 22.3, "unit": "%"},
      {"measurement": "percentage of cells in G0/G1 phase", "setting": "C-PAE cells [1]", "value": 57.6, "unit": "%"}
    ]},
    {"molecule": "LQRFTTMPFLFCNVNDVCNF [T3]", "values": [
      {"measurement": "effect on cell viability", "setting": "C-PAE cells [2]", "value": "significantly decrease cell viability"},
      {"measurement": "percentage of cells in S phase", "setting": "C-PAE cells [1]; bFGF 24 hours (control 22.1%), 50 μg/ml", "value": 13.8, "unit": "%"},
      {"measurement": "percentage of cells in S phase", "setting": "C-PAE cells [1]; bFGF 24 hours, 10 μg/ml", "value": 21.4, "unit": "%"},
      {"measurement": "percentage of cells in S phase", "setting": "C-PAE cells [1]; bFGF 24 hours, 25 μg/ml", "value": 20.5, "unit": "%"},
      {"measurement": "percentage of cells in G0/G1 phase", "setting": "C-PAE cells [1]", "value": 71.0, "unit": "%"}
    ]},
    {"molecule": "B1", "values": [
      {"measurement": "effect on proliferation of WM-164 cells", "setting": "WM-164 cells", "value": "no inhibitory effects"},
      {"measurement": "Relative Cell No. (%) WM-164", "setting": "WM-164 cells", "value": "100.0 ± 2.9", "unit": "%"},
      {"measurement": "decrease of cell viability", "setting": "C-PAE cells [2]; 5 μg/ml, 24 hours", "value": 22.5, "unit": "%"},
      {"measurement": "decrease of cell viability", "setting": "C-PAE cells [2]; 10 μg/ml", "value": 60, "unit": "%"},
      {"measurement": "G1 (cell cycle arrest assay)", "setting": "C-PAE cells [1]", "value": 10, "unit": "µg"}
    ]},
    {"molecule": "B2", "values": [
      {"measurement": "effect on proliferation of WM-164 cells", "setting": "WM-164 cells", "value": "not affected"},
      {"measurement": "Relative Cell No. (%) WM-164", "setting": "WM-164 cells", "value": "100.7 ± 2.7", "unit": "%"},
      {"measurement": "effect on cell viability", "setting": "C-PAE cells [2]", "value": "decreases cell viability in a dose-dependent manner"},
      {"measurement": "decrease of cell viability", "setting": "C-PAE cells [2]; 5 μg/ml, 24 hours", "value": 49.4, "unit": "%"},
      {"measurement": "G1 (cell cycle arrest assay)", "setting": "C-PAE cells [1]", "value": 5, "unit": "µg"}
    ]},
    {"molecule": "B3", "values": [
      {"measurement": "effect on proliferation of WM-164 cells", "setting": "WM-164 cells", "value": "not observed"},
      {"measurement": "ED50, decrease of cell viability", "setting": "C-PAE cells [2]", "value": 12, "unit": "µg/mL"},
      {"measurement": "percentage of cells in S phase", "setting": "C-PAE cells [1]; 5% FCS 21 hours (control 21.5%), dose not given", "value": 6.0, "unit": "%"},
      {"measurement": "percentage of cells in S phase", "setting": "C-PAE cells [1]; 5% FCS 21 hours, 1 μg/ml", "value": 19.3, "unit": "%"},
      {"measurement": "percentage of cells in S phase", "setting": "C-PAE cells [1]; 5% FCS 21 hours, 10 μg/ml", "value": 11.3, "unit": "%"},
      {"measurement": "G1 (cell cycle arrest assay)", "setting": "C-PAE cells [1]", "value": "<5", "unit": "µg"}
    ]},
    {"molecule": "B4", "values": [
      {"measurement": "effect on proliferation of WM-164 cells", "setting": "WM-164 cells", "value": "not affected"},
      {"measurement": "Relative Cell No. (%) WM-164", "setting": "WM-164 cells", "value": "96.2 ± 3.7", "unit": "%"}
    ]},
    {"molecule": "B5", "values": [
      {"measurement": "inhibition of WM-164 melanoma cells", "setting": "WM-164 cells; 50 μg/ml", "value": 46.1, "unit": "%"},
      {"measurement": "Relative Cell No. (%) WM-164", "setting": "WM-164 cells", "value": "52.4 ± 3.4", "unit": "%"}
    ]}
  ]
}
